Reference: paper PMC9426481, “Structure and Function of BcpE2, the Most Promiscuous GH3-Family Glucose Scavenging Beta-Glucosidase” (mBio, 2022)

Key:
BcpE2 = molecular target: T1, BcpE2 (Streptomyces scabiei, UniProt C9ZDY4); assay: TLC hydrolysis assay with purified enzyme (complete hydrolysis); assay type: biochemical
T1 construct: gene SCAB_64101; BcpE2-His6

BglC (His6-BglC) = molecular target: T2, BglC (His6-BglC) (Streptomyces scabiei, UniProt C9Z448); assay: glucose release; substrate inhibition fit; assay type: biochemical; settings: Ki of substrate inhibition
T2 construct: gene SCAB_57721; N-terminal His6 tag kept; plasmid pSAJ022; host E. coli BL21(DE3) Rosetta
T2 sequence (C9Z448 entry or part of it): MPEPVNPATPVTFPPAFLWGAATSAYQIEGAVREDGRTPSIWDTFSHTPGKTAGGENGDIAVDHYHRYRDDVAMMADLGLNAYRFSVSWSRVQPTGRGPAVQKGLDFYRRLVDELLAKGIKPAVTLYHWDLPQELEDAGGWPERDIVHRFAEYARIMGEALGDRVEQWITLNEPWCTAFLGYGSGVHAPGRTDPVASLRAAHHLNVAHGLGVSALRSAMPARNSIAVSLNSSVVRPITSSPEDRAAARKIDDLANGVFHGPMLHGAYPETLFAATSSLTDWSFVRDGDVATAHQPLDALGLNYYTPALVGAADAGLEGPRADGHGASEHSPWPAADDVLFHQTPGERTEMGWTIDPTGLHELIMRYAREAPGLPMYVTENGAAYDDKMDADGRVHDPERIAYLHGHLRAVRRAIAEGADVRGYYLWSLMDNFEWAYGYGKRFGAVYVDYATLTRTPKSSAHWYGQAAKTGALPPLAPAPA

purified protein [1] = substrate: COc1cc2ccc(=O)oc2cc1O[C@@H]1O[C@H](CO)[C@@H](O)[C@H](O)[C@H]1O; assay: purified protein; assay type: biochemical, Streptomyces scabiei
purified protein [2] = substrate: OC/C=C/c1ccc(O[C@@H]2O[C@H](CO)[C@@H](O)[C@H](O)[C@H]2O)cc1; assay: purified protein; assay type: biochemical, Streptomyces scabiei
[3] = substrate: COc1cc(/C=C/CO)ccc1O[C@@H]1O[C@H](CO)[C@@H](O)[C@H](O)[C@H]1O; assay: Hydrolysis kinetics (glucose release, Km) and TLC with purified enzyme; assay type: biochemical, Streptomyces scabiei
[4] = substrate: OC[C@H]1O[C@@H](Oc2ccc(O)cc2)[C@H](O)[C@@H](O)[C@@H]1O; assay: as above; assay type: biochemical, Streptomyces scabiei
[5] = substrate: OC[C@H]1O[C@@H](O[C@H]2[C@H](O)[C@@H](CO)OC(O)[C@@H]2O)[C@H](O)[C@@H](O)[C@@H]1O; assay: as above; assay type: biochemical, Streptomyces scabiei
[6] = substrate: COc1cc(/C=C/CO)cc(OC)c1O[C@@H]1O[C@H](CO)[C@@H](O)[C@H](O)[C@H]1O; assay: as above; assay type: biochemical, Streptomyces scabiei
[7] = substrate: OCc1ccccc1O[C@@H]1O[C@H](CO)[C@@H](O)[C@H](O)[C@H]1O; assay: as above; assay type: biochemical, Streptomyces scabiei

## OC[C@H]1O[C@@H](Oc2cc3c(O[C@@H]4O[C@H](CO)[C@@H](O)[C@H](O)[C@H]4O)cc(O)cc3[o+]c2-c2ccc(O)c(O)c2)[C@H](O)[C@@H](O)[C@@H]1O [Cyanin]
BcpE2
  TLC hydrolysis assay with purified enzyme (complete hydrolysis): Cyanin (Cyanidin-3,5-di-O-glucoside)|Antho-cyanosides|+|−|NT|NT|NT|NT

## CC(C)(C#N)O[C@@H]1O[C@H](CO)[C@@H](O)[C@H](O)[C@H]1O [Linamarin]
BcpE2
  TLC hydrolysis assay with purified enzyme (complete hydrolysis): Linamarin|Cyanogenic glycosides|+|−|NT|NT|NT|NT

## COc1cc2ccc(=O)oc2cc1O[C@@H]1O[C@H](CO)[C@@H](O)[C@H](O)[C@H]1O [Scopolin]
BglC (His6-BglC)
  Ki: the Ki value for BcpE2 appeared to be lower, indicating a stronger inhibition compared to BglC

B1: BcpE2 (Streptomyces scabiei 87.22) (protein)
chain: MAATPGTRTTPADEAREAAVEKALAALDLDAKARLLSGQDMWTLPALPEIGLASLVMSDGPIGVRGVRWTADDPSVALPSPTALAATWDPGLARRAGVLLAQEARRKGVHVLLAPTVNLHRSPLGGRHFEAYSEDPYLTGEIGSGYVTGVQAGGVGTTVKHFVANDAETDRFTVNNLVSARALRELYLAPFEAIVANAHPWGIMTAYNQVNGSTMTEHRYLVNEVLRGEWGFDGFNVSDWLAARSTTGALTGGLDVAMPGPATVYGEPLAAAVRAGEVTESLLDEAVRRVLRLAARVGILEGAAPAVTELPAPVDGEALAREIARRSFVLVRNEVRDGRAALPLEQGATVALIGAAARDARVLGGGSATVFPARVVSPLDGLTAALPEGAPTYALGADPNEELAVADTGFTLRAVCRDASGTVIGTRSAPNGHIQWMGSDLPDGVTHATLHSVELTGTFTPRETGTHTFGVKGLGAYTLTVDGTTHFDGVRTTDTDDPFVSFFGAPVPLAEVELTEGTPLEVSLTHVVELAADAPITMLAFSLCHQEPQRDPDELIAEAVEAARAADTAVVVVATTERVESEGFDRKDLRLPGRQDDLVRAVAAANPATVVVVNAGSPVELPWREDVAAVLLTWFPGQEGGAALAEVLTGAHEPGGRLPTTWGSLTGAPVTQVTPTAGELVYDEGVFIGYRAWDKEDRTPTYPFGHGLGYTDWTYESLDVTGTTATVRVRNTGTREGRETVQLYLAPTTADENRPTRWLAGFATVEAAPGETAEAVVRLPRRAFEIWDETTGAWVYVTGSYEVAAGRSIADRRTRVTIEAP
notes: BcpE2-His6
Purified protein [1]
  Km: 356 µM
  kcat: 192 s⁻¹
  kcat/Km: 540000 M⁻¹ s⁻¹
Purified protein [2]
  Km: 236 µM
  kcat: 77.2 s⁻¹
  kcat/Km: 326000 M⁻¹ s⁻¹
[3]
  Km: 151 ± 43 µM
  kcat: 83.3 ± 5.9 s⁻¹
  kcat/Km: 551000 M⁻¹ s⁻¹
[4]
  Km: 367 ± 80 µM
  kcat: 43.2 ± 2.5 s⁻¹
  kcat/Km: 117000 M⁻¹ s⁻¹
[5]
  Km: 6557 ± 1410 µM
  kcat: 8.74 ± 1.02 s⁻¹
  kcat/Km: 1330 M⁻¹ s⁻¹
[6]
  Km: 608 ± 166 µM
  kcat: 26.4 ± 3.07 s⁻¹
  kcat/Km: 43500 M⁻¹ s⁻¹
[7]
  Km: 142 ± 30 µM
  kcat: 53.2 ± 2.37 s⁻¹
  kcat/Km: 376000 M⁻¹ s⁻¹
